Measured values as given in paper PMC3069065.
Where no end group is shown, it is not given here. The star is where a group is joined. Biotin = O=C1N[C@H]2[C@H](CS[C@H]2CCCCC(=O)*)N1

Target: human vitamin D nuclear receptor ligand-binding domain, hexahistidine-tagged (6xHis-VDR-LBD) (human)
Experiment: AlphaScreen or HTRF; 100 nM 6xHis-VDR-LBD on Ni2+-chelate acceptor beads, 20 nM biotinylated TIF2-3 peptide on streptavidin donor beads; increasing concentrations of 1α,25(OH)2D3 or 1α,25(OH)2-3-epi-D3 (1% DMSO); 50 mM MOPS pH 7.4, 50 mM NaF, 50 mM CHAPS, 100 µg/ml BSA

Binder: Biotin-QEPVSPKKKENALLRYLLDKDDTKD [human TIF2-3 biotinylated peptide (TIF2 coactivator peptide bearing the 3rd LXXLL motif)]
- EC50 of the ligand 1α,25(OH)2-3-epi-D3 for induced recruitment of the peptide: 2.5 nM
- EC50 of the ligand 1α,25(OH)2D3 for induced recruitment of the peptide: 1.2 nM
